Reference: PMC10540216, “Activity Guided Azide-methyllysine Photo-trapping for Substrate Profiling of Lysine Demethylases” (Journal of the American Chemical Society, 2023)

B1: DPOG1_HUMAN (protein, UniProt P54098 1-1239, looked up)
DNA polymerase subunit gamma-1: MSRLLWRKVAGATVGPGPVPAPGRWVSSSVPASDPSDGQRRRQQQQQQQQQQQQQPQQPQVLSSEGGQLRHNPLDIQMLSRGLHEQIFGQGGEMPGEAAVRRSVEHLQKHGLWGQPAVPLPDVELRLPPLYGDNLDQHFRLLAQKQSLPYLEAANLLLQAQLPPKPPAWAWAEGWTRYGPEGEAVPVAIPEERALVFDVEVCLAEGTCPTLAVAISPSAWYSWCSQRLVEERYSWTSQLSPADLIPLEVPTGASSPTQRDWQEQLVVGHNVSFDRAHIREQYLIQGSRMRFLDTMSMHMAISGLSSFQRSLWIAAKQGKHKVQPPTKQGQKSQRKARRGPAISSWDWLDISSVNSLAEVHRLYVGGPPLEKEPRELFVKGTMKDIRENFQDLMQYCAQDVWATHEVFQQQLPLFLERCPHPVTLAGMLEMGVSYLPVNQNWERYLAEAQGTYEELQREMKKSLMDLANDACQLLSGERYKEDPWLWDLEWDLQEFKQKKAKKVKKEPATASKLPIEGAGAPGDPMDQEDLGPCSEEEEFQQDVMARACLQKLKGTTELLPKRPQHLPGHPGWYRKLCPRLDDPAWTPGPSLLSLQMRVTPKLMALTWDGFPLHYSERHGWGYLVPGRRDNLAKLPTGTTLESAGVVCPYRAIESLYRKHCLEQGKQQLMPQEAGLAEEFLLTDNSAIWQTVEELDYLEVEAEAKMENLRAAVPGQPLALTARGGPKDTQPSYHHGNGPYNDVDIPGCWFFKLPHKDGNSCNVGSPFAKDFLPKMEDGTLQAGPGGASGPRALEINKMISFWRNAHKRISSQMVVWLPRSALPRAVIRHPDYDEEGLYGAILPQVVTAGTITRRAVEPTWLTASNARPDRVGSELKAMVQAPPGYTLVGADVDSQELWIAAVLGDAHFAGMHGCTAFGWMTLQGRKSRGTDLHSKTATTVGISREHAKIFNYGRIYGAGQPFAERLLMQFNHRLTQQEAAEKAQQMYAATKGLRWYRLSDEGEWLVRELNLPVDRTEGGWISLQDLRKVQRETARKSQWKKWEVVAERAWKGGTESEMFNKLESIATSDIPRTPVLGCCISRALEPSAVQEEFMTSRVNWVVQSSAVDYLHLMLVAMKWLFEEFAIDGRFCISIHDEVRYLVREEDRYRAALALQITNLLTRCMFAYKLGLNDLPQSVAFFSAVDIDRCLRKEVTMDCKTPSNPTGMERRYGIPQGEALDIYQIIELTKGSLEKRSQPGP
B2: DHX30_HUMAN (protein, UniProt Q7L2E3 1-1194, looked up)
ATP-dependent RNA helicase …: MFSLDSFRKDRAQHRQRQCKLPPPRLPPMCVNPTPGGTISRASRDLLKEFPQPKNLLNSVIGRALGISHAKDKLVYVHTNGPKKKKVTLHIKWPKSVEVEGYGSKKIDAERQAAAAACQLFKGWGLLGPRNELFDAAKYRVLADRFGSPADSWWRPEPTMPPTSWRQLNPESIRPGGPGGLSRSLGREEEEDEEEELEEGTIDVTDFLSMTQQDSHAPLRDSRGSSFEMTDDDSAIRALTQFPLPKNLLAKVIQIATSSSTAKNLMQFHTVGTKTKLSTLTLLWPCPMTFVAKGRRKAEAENKAAALACKKLKSLGLVDRNNEPLTHAMYNLASLRELGETQRRPCTIQVPEPILRKIETFLNHYPVESSWIAPELRLQSDDILPLGKDSGPLSDPITGKPYVPLLEAEEVRLSQSLLELWRRRGPVWQEAPQLPVDPHRDTILNAIEQHPVVVISGDTGCGKTTRIPQLLLERYVTEGRGARCNVIITQPRRISAVSVAQRVSHELGPSLRRNVGFQVRLESKPPSRGGALLFCTVGILLRKLQSNPSLEGVSHVIVDEVHERDVNTDFLLILLKGLQRLNPALRLVLMSATGDNERFSRYFGGCPVIKVPGFMYPVKEHYLEDILAKLGKHQYLHRHRHHESEDECALDLDLVTDLVLHIDARGEPGGILCFLPGWQEIKGVQQRLQEALGMHESKYLILPVHSNIPMMDQKAIFQQPPVGVRKIVLATNIAETSITINDIVHVVDSGLHKEERYDLKTKVSCLETVWVSRANVIQRRGRAGRCQSGFAYHLFPRSRLEKMVPFQVPEILRTPLENLVLQAKIHMPEKTAVEFLSKAVDSPNIKAVDEAVILLQEIGVLDQREYLTTLGQRLAHISTDPRLAKAIVLAAIFRCLHPLLVVVSCLTRDPFSSSLQNRAEVDKVKALLSHDSGSDHLAFVRAVAGWEEVLRWQDRSSRENYLEENLLYAPSLRFIHGLIKQFSENIYEAFLVGKPSDCTLASAQCNEYSEEEELVKGVLMAGLYPNLIQVRQGKVTRQGKFKPNSVTYRTKSGNILLHKSTINREATRLRSRWLTYFMAVKSNGSVFVRDSSQVHPLAVLLLTDGDVHIRDDGRRATISLSDSDLLRLEGDSRTVRLLKELRRALGRMVERSLRSELAALPPSVQEEHGQLLALLAELLRGPCGSFDVRKTADD
B3: NU133_HUMAN (protein, UniProt Q8WUM0 1-1156, looked up)
Nuclear pore complex protein …: MFPAAPSPRTPGTGSRRGPLAGLGPGSTPRTASRKGLPLGSAVSSPVLFSPVGRRSSLSSRGTPTRMFPHHSITESVNYDVKTFGSSLPVKVMEALTLAEVDDQLTINIDEGGWACLVCKEKLIIWKIALSPITKLSVCKELQLPPSDFHWSADLVALSYSSPSGEAHSTQAVAVMVATREGSIRYWPSLAGEDTYTEAFVDSGGDKTYSFLTAVQGGSFILSSSGSQLIRLIPESSGKIHQHILPQGQGMLSGIGRKVSSLFGILSPSSDLTLSSVLWDRERSSFYSLTSSNISKWELDDSSEKHAYSWDINRALKENITDAIWGSESNYEAIKEGVNIRYLDLKQNCDGLVILAAAWHSADNPCLIYYSLITIEDNGCQMSDAVTVEVTQYNPPFQSEDLILCQLTVPNFSNQTAYLYNESAVYVCSTGTGKFSLPQEKIVFNAQGDSVLGAGACGGVPIIFSRNSGLVSITSRENVSILAEDLEGSLASSVAGPNSESMIFETTTKNETIAQEDKIKLLKAAFLQYCRKDLGHAQMVVDELFSSHSDLDSDSELDRAVTQISVDLMDDYPASDPRWAESVPEEAPGFSNTSLIILHQLEDKMKAHSFLMDFIHQVGLFGRLGSFPVRGTPMATRLLLCEHAEKLSAAIVLKNHHSRLSDLVNTAILIALNKREYEIPSNLTPADVFFREVSQVDTICECLLEHEEQVLRDAPMDSIEWAEVVINVNNILKDMLQAASHYRQNRNSLYRREESLEKEPEYVPWTATSGPGGIRTVIIRQHEIVLKVAYPQADSNLRNIVTEQLVALIDCFLDGYVSQLKSVDKSSNRERYDNLEMEYLQKRSDLLSPLLSLGQYLWAASLAEKYCDFDILVQMCEQTDNQSRLQRYMTQFADQNFSDFLFRWYLEKGKRGKLLSQPISQHGQLANFLQAHEHLSWLHEINSQELEKAHATLLGLANMETRYFAKKKTLLGLSKLAALASDFSEDMLQEKIEEMAEQERFLLHQETLPEQLLAEKQLNLSAMPVLTAPQLIGLYICEENRRANEYDFKKALDLLEYIDEEEDININDLKLEILCKALQRDNWSSSDGKDDPIEVSKDSIFVKILQKLLKDGIQLSEYLPEVKDLLQADQLGSLKSNPYFEFVLKANYEYYVQGQI
B4: SYVM_HUMAN (protein, UniProt Q5ST30 27-1063, looked up)
Valine--tRNA ligase, …: SVSTQSEPHGSPISRRNREAKQKRLREKQATLEAEIAGESKSPAESIKAWRPKELVLYEIPTKPGEKKDVSGPLPPAYSPRYVEAAWYPWWVREGFFKPEYQARLPQATGETFSMCIPPPNVTGSLHIGHALTVAIQDALVRWHRMRGDQVLWVPGSDHAGIATQAVVEKQLWKERGVRRHELSREAFLREVWQWKEAKGGEICEQLRALGASLDWDRECFTMDVGSSVAVTEAFVRLYKAGLLYRNHQLVNWSCALRSAISDIEVENRPLPGHTQLRLPGCPTPVSFGLLFSVAFPVDGEPDAEVVVGTTRPETLPGDVAVAVHPDDSRYTHLHGRQLRHPLMGQPLPLITDYAVQPHVGTGAVKVTPAHSPADAEMGARHGLSPLNVIAEDGTMTSLCGDWLQGLHRFVAREKIMSVLSEWGLFRGLQNHPMVLPICSRSGDVIEYLLKNQWFVRCQEMGARAAKAVESGALELSPSFHQKNWQHWFSHIGDWCVSRQLWWGHQIPAYLVVEDHAQGEEDCWVVGRSEAEAREVAAELTGRPGAELTLERDPDVLDTWFSSALFPFSALGWPQETPDLARFYPLSLLETGSDLLLFWVGRMVMLGTQLTGQLPFSKVLLHPMVRDRQGRKMSKSLGNVLDPRDIISGVEMQVLQEKLRSGNLDPAELAIVAAAQKKDFPHGIPECGTDALRFTLCSHGVQAGDLHLSVSEVQSCRHFCNKIWNALRFILNALGEKFVPQPAEELSPSSPMDAWILSRLALAAQECERGFLTRELSLVTHALHHFWLHNLCDVYLEAVKPVLWHSPRPLGPPQVLFSCADLGLRLLAPLMPFLAEELWQRLPPRPGCPPAPSISVAPYPSACSLEHWRQPELERRFSRVQEVVQVLRALRATYQLTKARPRVLLQSSEPGDQGLFEAFLEPLGTLGYCGAVGLLPPGAAAPSGWAQAPLSDTAQVYMELQGLVDPQIQLPLLAARRYKLQKQLDSLTARTPSEGEAGTQRQQKLSSLQLELSKLDKAASHLRQLMDEPPAPGSPEL
B5: GTF2I_HUMAN (protein, UniProt P78347 2-998, looked up)
General transcription factor …: AQVAMSTLPVEDEESSESRMVVTFLMSALESMCKELAKSKAEVACIAVYETDVFVVGTERGRAFVNTRKDFQKDFVKYCVEEEEKAAEMHKMKSTTQANRMSVDAVEIETLRKTVEDYFCFCYGKALGKSTVVPVPYEKMLRDQSAVVVQGLPEGVAFKHPENYDLATLKWILENKAGISFIIKRPFLEPKKHVGGRVMVTDADRSILSPGGSCGPIKVKTEPTEDSGISLEMAAVTVKEESEDPDYYQYNIQAGPSETDDVDEKQPLSKPLQGSHHSSEGNEGTEMEVPAEDSTQHVPSETSEDPEVEVTIEDDDYSPPSKRPKANELPQPPVPEPANAGKRKVREFNFEKWNARITDLRKQVEELFERKYAQAIKAKGPVTIPYPLFQSHVEDLYVEGLPEGIPFRRPSTYGIPRLERILLAKERIRFVIKKHELLNSTREDLQLDKPASGVKEEWYARITKLRKMVDQLFCKKFAEALGSTEAKAVPYQKFEAHPNDLYVEGLPENIPFRSPSWYGIPRLEKIIQVGNRIKFVIKRPELLTHSTTEVTQPRTNTPVKEDWNVRITKLRKQVEEIFNLKFAQALGLTEAVKVPYPVFESNPEFLYVEGLPEGIPFRSPTWFGIPRLERIVRGSNKIKFVVKKPELVISYLPPGMASKINTKALQSPKRPRSPGSNSKVPEIEVTVEGPNNNNPQTSAVRTPTQTNGSNVPFKPRGREFSFEAWNAKITDLKQKVENLFNEKCGEALGLKQAVKVPFALFESFPEDFYVEGLPEGVPFRRPSTFGIPRLEKILRNKAKIKFIIKKPEMFETAIKESTSSKSPPRKINSSPNVNTTASGVEDLNIIQVTIPDDDNERLSKVEKARQLREQVNDLFSRKFGEAIGMGFPVKVPYRKITINPGCVVVDGMPPGVSFKAPSYLEISSMRRILDSAEFIKFTVIRPFPGLVINNQLVDQSESEGPVIQESAEPSQLEVPATEEIKETDGSSQIKQEPDPTW

System: KDM4A-I71AzF
Experiment: CASI: photo-crosslinking with HEK293T cell extracts, StrepTactin enrichment and LC-MS/MS proteomics;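 note: lysates from HEK293T cells pretreated with a KDM4 inhibitor to raise proteome methylation, affinity-purified after ±UV, gel-resolved, trypsin-digested, with exclusive unique peptides per protein averaged per condition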
Assay type: binding, human
Details: sheet "Final results but with 0.01"

Molecule | Fold change (+UV/-UV)
B1 | 0
B2 | 0.75
B3 | 0.8
B4 | 0.5
B5 | 3
